Test results: the supplement of paper PMC6757056
± gives the standard deviation of the averaged measurements.

B1: library; a variant is named by its letters at N, in order (parent)
chain: GCUGUCACCGGUGCUUGGUACGUUAUAUUCAGCCGGUCUGAUGAGUCUNNNNNNAGACGAAACAGC

Key:
(6R,S)-folinic acid [1] = variants of: B1; assay: FACS-Seq fitted mean relative fluorescence mCherry/BFP without ligand (log10 relative fluorescence); HEK293T overexpressing SLC46A1; higher = higher reporter protein expression; settings: without (6R,S)-folinic acid; ligand present: no
Summary of the method: (§1)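 Enriched HEK293T cells carrying, by lentivirus, an mCherry reporter with the ribozyme switch and an EF1α-BFP marker spent 48 h with or without ligand and were sorted into 6 bins by mCherry/BFP. MiSeq sequencing of PCR-amplified bin genomic DNA gave bin counts. Fluorescence was calculated as the fitted normal mean of those counts. Counts were binned on log10(mCherry/BFP), and means were scaled to five spiked-in control ribozymes.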

(6R,S)-folinic acid [2] = variants of: B1; assay: normalized RNA/DNA level without ligand (relative to sTRSVctl = 100) (log10 (% of sTRSVctl)); HEK293T overexpressing SLC46A1; higher = less ribozyme self-cleavage, higher mRNA level; settings: without (6R,S)-folinic acid; ligand present: no
Summary of the method: (§2)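 Only sequences with at least 100 DNA reads were analyzed, from HEK293T cells transfected with 4 µg per 6-well well of ribozyme switch library plasmids 72 h before RNA extraction with EDTA. Any ligand was added 1 h before transfection. RNA level was defined as RNA over DNA reads, normalized to a spiked-in non-cleaving sequence or to the top sequences, then scaled and log-transformed. The top set was 25 sequences, and the scaling was ×100 followed by log10.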

(6R,S)-folinic acid [3] = variants of: B1; assay: FACS-Seq fitted mean relative fluorescence mCherry/BFP with ligand (log10 relative fluorescence); HEK293T overexpressing SLC46A1; ligand concentration (+) FACS-Seq: 6 mM; higher = higher reporter protein expression; settings: with (6R,S)-folinic acid; ligand present: yes
Summary of the method: as §1

(6R,S)-folinic acid [4] = variants of: B1; assay: normalized RNA/DNA level with ligand (relative to sTRSVctl = 100) (log10 (% of sTRSVctl)); HEK293T overexpressing SLC46A1; ligand concentration (+) RNA-Seq: 6 mM; higher = less ribozyme self-cleavage, higher mRNA level; settings: with (6R,S)-folinic acid; ligand present: yes
Summary of the method: as §2

| Variant | FACS-Seq fitted mean (log10) ((6R,S)-folinic acid [1]) | normalized RNA/DNA level without ligand (log10) ((6R,S)-folinic acid [2]) | FACS-Seq fitted mean (log10) ((6R,S)-folinic acid [3]) | normalized RNA/DNA level with ligand (log10) ((6R,S)-folinic acid [4]) |
| --- | --- | --- | --- | --- |
| CUAGAU | 0.368 ± 0.079 | 1.957 ± 0.0032 | 0.387 ± 0.061 | 2 ± 0.028 |
| UUAAUG | 0.316 ± 0.0067 | 1.819 ± 0.0065 | 0.461 ± 0.14 | 1.97 ± 0.012 |
| UUAAUA | 0.0221 ± 0.032 | 2.006 ± 0.0071 | 0.171 ± 1.6 | 2.02 ± 0.022 |
| GUAAGG | 0.183 ± 0.078 | 1.946 ± 0.015 | 0.381 ± 0.047 | 2.025 ± 0.015 |
| GUAAGC | 0.239 ± 0.059 | 1.896 ± 0.0061 | 0.33 ± 0.072 | 2.01 ± 0.013 |
| UGUUAG | 0.447 ± 0.11 | 1.63 ± 0.04 | 0.762 ± 0.15 | 1.929 ± 0.016 |
| UGUUAC | 0.317 ± 0.16 | 1.947 ± 0.018 | 0.39 ± 0.013 | 1.99 ± 0.021 |
| UGUUAA | -0.0426 ± 0.13 | 1.92 ± 0.024 | 0.191 ± 0.081 | 1.98 ± 0.022 |
| AUAGGG | -0.255 ± 0.066 | 1.599 ± 0.0044 | 0.286 ± 0.019 | 1.92 ± 0.025 |
| AUAGGU | 0.477 ± 0.19 | 1.87 ± 0.023 | 0.695 ± 0.3 | 2.01 ± 0.047 |
| AUAGGC | 0.336 ± 0.054 | 2.013 ± 0.012 | 0.59 ± 0.1 | 2.047 ± 0.016 |
| GGUGCA | 0.256 ± 0.027 | 2.037 ± 0.017 | 0.204 ± 0.17 | 2.04 ± 0.032 |
| GGUGCU | -0.205 ± 0.13 | 2.005 ± 0.017 | 0.149 ± 0.25 | 2.01 ± 0.046 |
| UGUGAA | 0.186 ± 0.034 | 1.899 ± 0.015 | 0.243 ± 0.25 | 1.984 ± 0.012 |
| UGUGAG | 0.269 ± 0.082 | 1.6 ± 0.0064 | 0.649 ± 0.03 | 1.906 ± 0.0071 |
| CGUGAA | 0.328 ± 0.19 | 1.9509 ± 0.0012 | 0.192 ± 0.33 | 2.01 ± 0.028 |
| CGUGAC | 0.241 ± 0.037 | 2.015 ± 0.01 | 0.201 ± 0.09 | 1.99 ± 0.052 |
| CUAGGU | 0.652 ± 0.16 | 2.024 ± 0.0033 | 0.694 ± 0.027 | 2.05 ± 0.028 |
| CUAGGC | 0.0076 ± 0.12 | 2.005 ± 0.0013 | 0.186 ± 0.24 | 2 ± 0.028 |
| GUAUGC | 0.271 ± 0.067 | 1.891 ± 0.015 | 0.404 ± 0.15 | 2 ± 0.03 |
| UUAGCA | -0.108 ± 0.12 | 1.9803 ± 0.0011 | -0.232 ± 0.1 | 2.0126 ± 0.00039 |
| AUAAAC | -0.0226 ± 0.13 | 1.998 ± 0.0043 | -0.127 ± 0.3 | 1.99 ± 0.026 |
| AUAAAA | 0.343 ± 0.0039 | 1.9901 ± 0.0019 | 0.263 ± 0.23 | 1.994 ± 0.016 |
| AUAAAU | 0.45 ± 0.08 | 1.951 ± 0.017 | 0.359 ± 0.082 | 2.028 ± 0.007 |

| Variant | FACS-Seq fitted mean (log10) ((6R,S)-folinic acid [1]) | normalized RNA/DNA level without ligand (log10) ((6R,S)-folinic acid [2]) | FACS-Seq fitted mean (log10) ((6R,S)-folinic acid [3]) | normalized RNA/DNA level with ligand (log10) ((6R,S)-folinic acid [4]) |
| --- | --- | --- | --- | --- |
| AUAAAG | 0.418 ± 0.03 | 1.901 ± 0.0089 | 0.417 ± 0.016 | 2 ± 0.036 |
| AUAUGA | 0.209 ± 0.013 | 1.976 ± 0.004 | 0.342 ± 0.096 | 2.01 ± 0.034 |
| AUAUGU | 0.367 ± 0.12 | 1.9129 ± 0.00064 | 0.417 ± 0.46 | 2.0205 ± 0.0011 |
| AUAUGG | 0.12 ± 0.066 | 1.867 ± 0.0088 | 0.307 ± 0.19 | 2 ± 0.034 |
| GUAAAC | 0.139 ± 0.033 | 1.965 ± 0.0075 | 0.507 ± 0.47 | 2.04 ± 0.0061 |
| GUAAAA | 0.0987 ± 0.013 | 1.998 ± 0.0036 | -0.0576 ± 0.026 | 1.96 ± 0.046 |
| GUAAAU | 0.332 ± 0.13 | 1.971 ± 0.0055 | 0.464 ± 0.033 | 2.003 ± 0.0095 |
| UGUGGU | 0.0696 ± 0.063 | 1.89 ± 0.022 | 0.265 ± 0.0042 | 2 ± 0.054 |
| UGUGGG | 0.109 ± 0.02 | 1.6031 ± 0.0006 | 0.695 ± 0.086 | 1.96 ± 0.017 |
| UGUGGA | -0.112 ± 0.058 | 1.816 ± 0.0017 | 0.123 ± 0.11 | 2 ± 0.027 |
| AGUGGA | 0.399 ± 0.14 | 1.963 ± 0.018 | 0.327 ± 0.082 | 2.015 ± 0.0071 |
| GUAUCA | 0.376 ± 0.03 | 2.045 ± 0.01 | 0.586 ± 0.01 | 2.04 ± 0.03 |
| CUAUGU | 0.286 ± 0.071 | 2.01 ± 0.023 | 0.152 ± 0.23 | 2.023 ± 0.014 |
| AUACCA | -0.158 ± 0.032 | 2.036 ± 0.01 | -0.268 ± 0.23 | 2.01 ± 0.043 |
| UUACUG | -0.466 ± 0.24 | 1.902 ± 0.011 | -0.804 ± 0.28 | 2.01 ± 0.066 |
| UGUUGG | -0.0684 ± 0.078 | 1.53 ± 0.048 | 0.426 ± 0.024 | 1.88 ± 0.042 |
| UGUUGA | 0.32 ± 0.026 | 1.837 ± 0.015 | 0.463 ± 0.13 | 2.01 ± 0.035 |
| GUACUU | 0.484 ± 0.059 | 2.034 ± 0.015 | 0.386 ± 0.2 | 2.04 ± 0.06 |
| GUACUC | 0.541 ± 0.13 | 2.051 ± 0.016 | 0.366 ± 0.17 | 2.041 ± 0.013 |
| GUACUA | 0.314 ± 0.17 | 2.046 ± 0.0037 | 0.428 ± 0.14 | 2.04 ± 0.026 |
| AUAGAC | 0.4594 ± 0.0035 | 1.968 ± 0.0041 | 0.536 ± 0.13 | 1.98 ± 0.017 |
| AUAGAG | 0.0276 ± 0.0023 | 1.52 ± 0.0028 | 0.431 ± 0.14 | 1.89 ± 0.034 |
| AUAGAU | 0.365 ± 0.1 | 1.925 ± 0.011 | 0.406 ± 0.1 | 2 ± 0.054 |
| AUAUUC | -0.738 ± 0.81 | 2.035 ± 0.019 | -1.5 ± 0.9 | 2.031 ± 0.01 |

| Variant | FACS-Seq fitted mean (log10) ((6R,S)-folinic acid [1]) | normalized RNA/DNA level without ligand (log10) ((6R,S)-folinic acid [2]) | FACS-Seq fitted mean (log10) ((6R,S)-folinic acid [3]) | normalized RNA/DNA level with ligand (log10) ((6R,S)-folinic acid [4]) |
| --- | --- | --- | --- | --- |
| AUAUUG | 0.176 ± 0.067 | 1.896 ± 0.0041 | 0.136 ± 0.13 | 1.97 ± 0.011 |
| UGUGCU | 0.259 ± 0.17 | 2.024 ± 0.011 | 0.414 ± 0.076 | 2.07 ± 0.03 |
| UGUGCG | 0.0533 ± 0.02 | 1.657 ± 0.011 | 0.442 ± 0.14 | 1.96 ± 0.05 |
| UUAAAA | 0.578 ± 0.062 | 1.9319 ± 0.0016 | 0.669 ± 0.26 | 1.966 ± 0.017 |
| UUAAAC | 0.248 ± 0.093 | 1.984 ± 0.0098 | 0.271 ± 0.092 | 1.99 ± 0.031 |
| UUAAAG | 0.413 ± 0.085 | 1.822 ± 0.008 | 0.519 ± 0.17 | 1.94 ± 0.042 |
| UUAUCU | 0.453 ± 0.099 | 2.0125 ± 0.0014 | 0.133 ± 0.1 | 2.03 ± 0.0072 |
| AUAUAU | 0.272 ± 0.026 | 1.947 ± 0.011 | 0.459 ± 0.073 | 1.99 ± 0.02 |
| AUAUAG | 0.309 ± 0.028 | 1.91 ± 0.021 | 0.295 ± 0.25 | 2 ± 0.022 |
| AUAUAC | 0.205 ± 0.083 | 1.994 ± 0.015 | 0.279 ± 0.065 | 2 ± 0.041 |
| UUACGU | 0.339 ± 0.078 | 1.97 ± 0.0066 | 0.15 ± 0.074 | 2.01 ± 0.044 |
| CGUGGA | 0.378 ± 0.16 | 1.988 ± 0.014 | 0.668 ± 0.33 | 2.02 ± 0.043 |
| UUACCC | 0.388 ± 0.015 | 2.018 ± 0.015 | 0.263 ± 0.21 | 2.01 ± 0.03 |
| AUAUCC | 0.455 ± 0.027 | 2.0352 ± 0.00073 | 0.839 ± 0.019 | 2.03 ± 0.039 |
| GGUUUG | 0.0685 ± 0.084 | 2.024 ± 0.0089 | -0.1121 ± 0.00036 | 2.06 ± 0.025 |
| AUAGUA | 0.293 ± 0.042 | 1.93 ± 0.027 | 0.273 ± 0.21 | 1.97 ± 0.019 |
| AUAGUG | 0.15 ± 0.12 | 1.59 ± 0.023 | 0.795 ± 0.071 | 1.93 ± 0.024 |
| CUAAGU | 0.502 ± 0.033 | 2 ± 0.022 | 0.535 ± 0.079 | 1.995 ± 0.0037 |
| UGUUUG | 0.222 ± 0.04 | 1.794 ± 0.0043 | 0.62 ± 0.05 | 2.01 ± 0.025 |
| UGUUUU | 0.296 ± 0.18 | 1.985 ± 0.0066 | 0.546 ± 0.13 | 2.03 ± 0.023 |
| GUAUUU | 0.142 ± 0.24 | 2 ± 0.022 | 0.173 ± 0.0069 | 2.01 ± 0.033 |
| UUAAGG | 0.0635 ± 0.0074 | 1.855 ± 0.0022 | 0.25 ± 0.22 | 1.98 ± 0.025 |
| UUAAGA | 0.166 ± 0.039 | 1.95 ± 0.024 | 0.272 ± 0.014 | 2.04 ± 0.029 |
| AGUGAU | 0.213 ± 0.04 | 1.972 ± 0.016 | 0.178 ± 0.14 | 1.996 ± 0.0024 |
